Data: US20260109758A1 (BIOSION, published 2026)
Read-outs that look alike come from different tables or passages of the source. Blank lines part the entries; values can stand above or below the binder they belong to.

Tests used:
[1] = molecular target: T1, recombinant human IL4Rα-his (human, UniProt P24394 26-231, limits assumed, biotin-labeled in the capture ELISA); assay: competitive ELISA: coated human IL4Rα-his, antibody titrated; blocked ligand biotin human IL4
T1 construct: In-house made; not shown: His tag at the C-terminus
Experimental: (§1) Briefly, 100 μL human IL4Rα-his proteins (prepared in-house, IL4Rα of SEQ ID NO: 33 with C-terminal His tag) were coated on 96-well micro plates at 2 μg/mL in PBS overnight at 4° C. The next day, plates were washed with wash buffer (PBS+0.05% w/v Tween-20, PBST), and blocked with 5% w/v non-fatty milk in PBST for 2 hours at 37° C. Plates were then washed again using wash buffer. Serially diluted bispecific antibodies or the controls (starting at 100 nM with a 5-fold serial dilution) in 2.5% w/v non-fatty milk in PBST, 100 μL per well, were added to the IL4Rα bound plates, and incubated at 37° C. for 40 minutes. […] Plates were washed again using wash buffer. Thereafter, the plates were added with 100 μL/well of streptavidin conjugated HRP (1:10000 dilution in PBST buffer, Jackson Immunoresearch, Cat #016-030-084) and incubated for 40 minutes at 37° C. Plates were washed again using wash buffer. Finally, TMB was added and the reaction was stopped using 1M H₂SO₄, and the absorbance was read at 450 nm. Data was analyzed using Graphpad Prism and IC₅₀ values were reported.

[2] = molecular target: human IL4Rα on HEK293T-IL4R/STAT6/STAT6-Luc LB2 cells (human, UniProt P24394 26-825); assay: cell-based or functional assay
[3] = molecular target: T2, human IL4Rα expressed on 293F-IL4Rα cell surface (human, UniProt P24394 26-825); assay: cell-based blocking FACS on 293F-IL4Rα cells; blocked ligand biotin human IL4
T2 construct: whole, on cells; also called human IL4Rα-expressing cells; cell surface IL4R
Experimental: (§2) Then, 1×10⁵ cells per well were incubated in 96 well-plates in 100 μL of serially diluted bispecific antibodies, the positive controls or negative control (starting at 100 nM with a 5-fold serial dilution) in FACS buffer for 40 minutes on ice. […] The plates were washed twice with FACS buffer, and then added and incubated for 40 minutes at 4° C. in dark with 100 μL/well R-Phycoerythrin Streptavidin (1:500 dilution in FACS buffer, Jackson Immunoresearch, Cat #016-110-084). Cells were washed twice and resuspended in FACS buffer. Fluorescence was measured using a Becton Dickinson FACS Canto II-HTS equipment. Data was analyzed using Graphpad Prism and IC₅₀ values were reported.

[4] = molecular target: T1, recombinant human IL4Rα-his; assay: competitive ELISA: coated human IL4Rα-his, antibody titrated; blocked ligand biotin human IL4; remark: listed apart in the source
Experimental: as §1

[5] = molecular target: T2, human IL4Rα expressed on 293F-IL4Rα …; assay: cell-based blocking FACS on 293F-IL4Rα cells; blocked ligand biotin human IL4; remark: listed apart in the source
Experimental: as §2

[6] = molecular target: T3, biotin-labeled human TSLP-Fc (human, biotin-labeled); assay: cell-based blocking FACS: antibody pre-mixed with biotin human TSLP-Fc; blocked binding to cell-surface TSLPR/IL7Ra on HEK293T-TSLPR/IL7R/STAT5-Luc 5C5 cells
T3 construct: also called TSLP-Fc protein; TSLP-Fc-biotin
Experimental: The cells were prepared following the instruction of lipofectamine 3000 transfection reagent (Thermo Fisher), by transfecting HEK293T cells (ATCC® CRL-11268) with pCMV-T-P plasmids inserted with TSLPR coding sequence between EcoRI and Xba1 sites and pCMV3-SP plasmids inserted with IL7Ra coding sequence between HindIII and Xba1 sites as well as pGL4.52 [luc2P/STAT5RE/Hygro](Promega).
The cells were harvested from cell culture flasks, washed twice and re-suspended in phosphate buffered saline (PBS) containing 2% v/v Fetal Bovine Serum (FACS buffer). […] Cells were washed twice with FACS buffer, and then added and incubated with 100 μL/well R-Phycoerythrin Streptavidin (1:500 dilution in FACS buffer, Jackson Immunoresearch, Cat #016-110-084) for 40 minutes at 4° C. in dark. Cells were washed twice and re-suspended in FACS buffer. Fluorescence was measured using a Becton Dickinson FACS Canto II-HTS equipment. Data was analyzed using Graphpad Prism and IC₅₀ values were reported.

[7] = molecular target: T1, recombinant human IL4Rα-his; assay: capture ELISA: antibody captured on anti-human IgG Fc F(ab')2, biotin human IL4Rα-his, SA-HRP
Experimental: Briefly, 96-well plates were coated with 2 μg/mL AffiniPure F(ab′)₂ Fragment Goat Anti-Human IgG, Fey fragment specific (Jackson Immuno Research, Cat #109-006-008) in PBS, 100 μL/well, overnight at 4° C. Plates were washed once with wash buffer (PBS+0.05% w/v Tween-20, PBST) and then blocked with 200 μL/well blocking buffer (5% w/v non-fatty milk in PBST) for 2 hours at 37° C. […] After a final wash, plates were incubated with 100 μL/well ELISA substrate TMB (Innoreagents, Cat #TMB-S-002). The reaction was stopped in 10 minutes at 25° C. with 50 μL/well 1M H₂SO₄, and the absorbance was read on a microplate reader using dual wavelength mode with 450 nm for TMB and 630 nm as the reference wavelength. Data was analyzed using Graphpad Prism and EC₅₀ values were reported.

IC50 [1]: 0.229 nM
Inhibition on IL4 induced STAT6 phosphorylation (IC50, nM) [2]: 0.0221 nM
Inhibition on IL13 induced STAT6 phosphorylation (IC50, nM) [2]: 0.0306 nM
IC50 [3]: 0.204 nM
B1: BSI-502-003 (bispecific antibody, human IgG1, kappa)
heavy: EVQLVESGGGLVQPGGSLRLSCAASGFTFSTYGMSWVRQAPGKGLVWVATINSNGGSTSYPDSVKGRFTISRDNAKNTLYLQMNSLRAEDTAVYYCARFFRFRNAMDYWGQGTLVTVSSGGGGSGGGGSGGGGSGGGGSDIQMTQSPSSLSASVGDRVTITCRTSENIYSYLAWYQQKPGKAPKFLVYNAKTLAEGVPSRFSGSGSGTDFTLTISSLQPEDFATYYCQHYYGPPTWTFGQGTKVEIKGGGGSGGGGSQVQLVQSGAEVKKPGASVKVSCKASGYTFTTYWMHWVRQAPGQGLEWMGVIDPSDSDTTYNQKFKGRVTMTRDTSTSTVYMELSSLRSEDTAVYYCTRSLDGYYDYWGQGTLVTVSSASTKGPSVFPLAPSSKSTSGGTAALGCLVKDYFPEPVTVSWNSGALTSGVHTFPAVLQSSGLYSLSSVVTVPSSSLGTQTYICNVNHKPSNTKVDKKVEPKSCDKTHTCPPCPAPEAQGGPSVFLFPPKPKDTLYITREPEVTCVVVDVSHEDPEVKFNWYVDGVEVHNAKTKPREEQYNSTYRVVSVLTVLHQDWLNGKEYKCQVSNKALPAPIEKTISKAKGQPREPQVYTLPPSRDELTKNQVSLTCLVKGFYPSDIAVEWESNGQPENNYKTTPPVLDSDGSFFLYSKLTVDKSRWQQGNVFSCSVMHEALHNHYTQKSLSLSPG
light: DIQMTQSPSSLSASVGDRVTITCRPTENIYSYLAWYQQKPGKAPKLLIYFARTLAEGVPSRFSGSGSGTDFTLTISSLQPEDFATYYCQHHYGTPWTFGGGTKVEIKRTVAAPSVFIFPPSDEQLKSGTASVVCLLNNFYPREAKVQWKVDNALQSGNSQESVTEQDSKDSTYSLSSTLTLSKADYEKHKVYACEVTHQGLSSPVTKSFNRGEC
notes: hu1C5F12E9-V8 IgG with an anti-IL4R scFv (huC2C1A1A1-V15, VH-VL) at the N-terminus of the heavy chain; AQQ and YTE already stand in the entry

IC50 [4]: 0.449 nM
IC50 [5]: 0.381 nM
IC50 [6]: 1.39 nM
EC50 [7]: 0.119 nM
B2: BSI-502-005 (bispecific antibody, human IgG1, kappa)
heavy: QVQLVQSGAEVKKPGASVKVSCKASGYTFTTYWMHWVRQAPGQGLEWMGVIDPSDSDTTYNQKFKGRVTMTRDTSTSTVYMELSSLRSEDTAVYYCTRSLDGYYDYWGQGTLVTVSSASTKGPSVFPLAPSSKSTSGGTAALGCLVKDYFPEPVTVSWNSGALTSGVHTFPAVLQSSGLYSLSSVVTVPSSSLGTQTYICNVNHKPSNTKVDKKVEPKSCDKTHTCPPCPAPEAQGGPSVFLFPPKPKDTLYITREPEVTCVVVDVSHEDPEVKFNWYVDGVEVHNAKTKPREEQYNSTYRVVSVLTVLHQDWLNGKEYKCQVSNKALPAPIEKTISKAKGQPREPQVYTLPPSRDELTKNQVSLTCLVKGFYPSDIAVEWESNGQPENNYKTTPPVLDSDGSFFLYSKLTVDKSRWQQGNVFSCSVMHEALHNHYTQKSLSLSPGKGGGGSGGGGSEVQLVESGGGLVQPGGSLRLSCAASGFTFSTYGMSWVRQAPGKGLVWVATINSNGGSTSYPDSVKGRFTISRDNAKNTLYLQMNSLRAEDTAVYYCARFFRFRNAMDYWGQGTLVTVSSGGGGSGGGGSGGGGSGGGGSDIQMTQSPSSLSASVGDRVTITCRTSENIYSYLAWYQQKPGKAPKFLVYNAKTLAEGVPSRFSGSGSGTDFTLTISSLQPEDFATYYCQHYYGPPTWTFGQGTKVEIK
light: B1 light
notes: hu1C5F12E9-V8 IgG with an anti-IL4R scFv (VH-VL) at the C-terminus of the heavy chain; AQQ and YTE already stand in the entry

IC50 [4]: 0.212 nM
IC50 [5]: 0.199 nM
IC50 [6]: 1.12 nM
EC50 [7]: 0.0272 nM
B3: BSI-502-007 (bispecific antibody, human IgG1, kappa)
heavy: QVQLVQSGAEVKKPGASVKVSCKASGYTFTTYWMHWVRQAPGQGLEWMGVIDPSDSDTTYNQKFKGRVTMTRDTSTSTVYMELSSLRSEDTAVYYCTRSLDGYYDYWGQGTLVTVSSGGGGSGGGGSGGGGSGGGGSDIQMTQSPSSLSASVGDRVTITCRPTENIYSYLAWYQQKPGKAPKLLIYFARTLAEGVPSRFSGSGSGTDFTLTISSLQPEDFATYYCQHHYGTPWTFGGGTKVEIKGGGGSGGGGSEVQLVESGGGLVQPGGSLRLSCAASGFTFSTYGMSWVRQAPGKGLVWVATINSNGGSTSYPDSVKGRFTISRDNAKNTLYLQMNSLRAEDTAVYYCARFFRFRNAMDYWGQGTLVTVSSASTKGPSVFPLAPSSKSTSGGTAALGCLVKDYFPEPVTVSWNSGALTSGVHTFPAVLQSSGLYSLSSVVTVPSSSLGTQTYICNVNHKPSNTKVDKKVEPKSCDKTHTCPPCPAPEAQGGPSVFLFPPKPKDTLYITREPEVTCVVVDVSHEDPEVKFNWYVDGVEVHNAKTKPREEQYNSTYRVVSVLTVLHQDWLNGKEYKCQVSNKALPAPIEKTISKAKGQPREPQVYTLPPSRDELTKNQVSLTCLVKGFYPSDIAVEWESNGQPENNYKTTPPVLDSDGSFFLYSKLTVDKSRWQQGNVFSCSVMHEALHNHYTQKSLSLSPG
light: DIQMTQSPSSLSASVGDRVTITCRTSENIYSYLAWYQQKPGKAPKFLVYNAKTLAEGVPSRFSGSGSGTDFTLTISSLQPEDFATYYCQHYYGPPTWTFGQGTKVEIKRTVAAPSVFIFPPSDEQLKSGTASVVCLLNNFYPREAKVQWKVDNALQSGNSQESVTEQDSKDSTYSLSSTLTLSKADYEKHKVYACEVTHQGLSSPVTKSFNRGEC
notes: huC2C1A1A1-V15 IgG with an anti-TSLP scFv (VH-VL) at the N-terminus of the heavy chain; AQQ and YTE already stand in the entry

IC50 [4]: 0.236 nM
IC50 [5]: 0.169 nM
IC50 [6]: 1.13 nM
EC50 [7]: 0.0323 nM
B4: BSI-502-008 (bispecific antibody, human IgG1, kappa)
heavy: DIQMTQSPSSLSASVGDRVTITCRPTENIYSYLAWYQQKPGKAPKLLIYFARTLAEGVPSRFSGSGSGTDFTLTISSLQPEDFATYYCQHHYGTPWTFGGGTKVEIKGGGGSGGGGSGGGGSGGGGSQVQLVQSGAEVKKPGASVKVSCKASGYTFTTYWMHWVRQAPGQGLEWMGVIDPSDSDTTYNQKFKGRVTMTRDTSTSTVYMELSSLRSEDTAVYYCTRSLDGYYDYWGQGTLVTVSSGGGGSGGGGSEVQLVESGGGLVQPGGSLRLSCAASGFTFSTYGMSWVRQAPGKGLVWVATINSNGGSTSYPDSVKGRFTISRDNAKNTLYLQMNSLRAEDTAVYYCARFFRFRNAMDYWGQGTLVTVSSASTKGPSVFPLAPSSKSTSGGTAALGCLVKDYFPEPVTVSWNSGALTSGVHTFPAVLQSSGLYSLSSVVTVPSSSLGTQTYICNVNHKPSNTKVDKKVEPKSCDKTHTCPPCPAPEAQGGPSVFLFPPKPKDTLYITREPEVTCVVVDVSHEDPEVKFNWYVDGVEVHNAKTKPREEQYNSTYRVVSVLTVLHQDWLNGKEYKCQVSNKALPAPIEKTISKAKGQPREPQVYTLPPSRDELTKNQVSLTCLVKGFYPSDIAVEWESNGQPENNYKTTPPVLDSDGSFFLYSKLTVDKSRWQQGNVFSCSVMHEALHNHYTQKSLSLSPG
light: B3 light
notes: huC2C1A1A1-V15 IgG with an anti-TSLP scFv (VL-VH) at the N-terminus of the heavy chain; AQQ and YTE already stand in the entry
